From PMC9482650, “Quantitative fragmentomics allow affinity mapping of interactomes” (Nature Communications, 2022)

target: T1, APBA2_2, Q99767; test: holdup assay; design: key: below the threshold = too weak to quantify, mostly under pKd 3.1 to 4; details: plain residues with an end cap or a label only (N-terminal biotin on a linker: ado-ado)
T1 sequence (Q99767 654-744, limits assumed, looked up): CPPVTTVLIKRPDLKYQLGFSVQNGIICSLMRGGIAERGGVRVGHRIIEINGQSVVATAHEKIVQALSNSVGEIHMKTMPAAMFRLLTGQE

Binder	pKd
LKVPPEERLI [CRB2, Q5IJ48]	below the threshold
YRLAQESGLV [ABCC6, O95255]	below the threshold

target: T2, ARHGAP21, Q5T5U3; test: holdup assay; design: key: below the threshold = too weak to quantify, mostly under pKd 3.1 to 4; details: plain residues with an end cap or a label only (N-terminal biotin on a linker: ado-ado)
T2 sequence (Q5T5U3 45-169, limits assumed, looked up): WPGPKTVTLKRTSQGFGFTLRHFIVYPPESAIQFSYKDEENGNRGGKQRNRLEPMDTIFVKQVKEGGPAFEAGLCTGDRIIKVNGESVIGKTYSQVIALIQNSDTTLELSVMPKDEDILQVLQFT

Binder	pKd
LKVPPEERLI [CRB2, Q5IJ48]	3.89
YRLAQESGLV [ABCC6, O95255]	4.1

target: T3, DFNB31_2, Q9P202; test: holdup assay; design: key: below the threshold = too weak to quantify, mostly under pKd 3.1 to 4; details: plain residues with an end cap or a label only (N-terminal biotin on a linker: ado-ado)
T3 sequence (Q9P202 274-371, limits assumed, looked up): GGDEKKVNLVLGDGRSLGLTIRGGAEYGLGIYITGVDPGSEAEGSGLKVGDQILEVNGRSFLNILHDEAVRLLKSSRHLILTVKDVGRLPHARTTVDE

Binder	pKd
LKVPPEERLI [CRB2, Q5IJ48]	below the threshold
YRLAQESGLV [ABCC6, O95255]	below the threshold

target: DLG1_2, Q12959; test: holdup assay; design: key: below the threshold = too weak to quantify, mostly under pKd 3.1 to 4; details: plain residues with an end cap or a label only (N-terminal biotin on a linker: ado-ado)
Sequence (Q12959 314-412): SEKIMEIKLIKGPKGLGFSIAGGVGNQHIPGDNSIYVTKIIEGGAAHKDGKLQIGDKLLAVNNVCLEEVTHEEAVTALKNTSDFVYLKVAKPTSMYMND

Binder	pKd
LKVPPEERLI [CRB2, Q5IJ48]	below the threshold
YRLAQESGLV [ABCC6, O95255]	below the threshold

target: DLG2_2, Q15700; test: holdup assay; design: key: below the threshold = too weak to quantify, mostly under pKd 3.1 to 4; details: plain residues with an end cap or a label only (N-terminal biotin on a linker: ado-ado)

Binder	pKd
LKVPPEERLI [CRB2, Q5IJ48]	below the threshold
YRLAQESGLV [ABCC6, O95255]	below the threshold

target: DLG2_3, Q15700; test: holdup assay; design: key: below the threshold = too weak to quantify, mostly under pKd 3.1 to 4; details: plain residues with an end cap or a label only (N-terminal biotin on a linker: ado-ado)

Binder	pKd
LKVPPEERLI [CRB2, Q5IJ48]	below the threshold
YRLAQESGLV [ABCC6, O95255]	below the threshold

target: T4, DLG3_1, Q92796; test: holdup assay; design: key: below the threshold = too weak to quantify, mostly under pKd 3.1 to 4; details: plain residues with an end cap or a label only (N-terminal biotin on a linker: ado-ado)
T4 sequence (Q92796 125-227, limits assumed, looked up): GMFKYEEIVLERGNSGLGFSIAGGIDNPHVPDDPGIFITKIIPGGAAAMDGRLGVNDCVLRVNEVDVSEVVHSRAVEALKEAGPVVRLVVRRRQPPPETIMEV

Binder	pKd
LKVPPEERLI [CRB2, Q5IJ48]	below the threshold
YRLAQESGLV [ABCC6, O95255]	below the threshold

target: HTRA1, Q92743; test: holdup assay; design: key: below the threshold = too weak to quantify, mostly under pKd 3.1 to 4; details: plain residues with an end cap or a label only (N-terminal biotin on a linker: ado-ado)
Sequence (Q92743 360-477): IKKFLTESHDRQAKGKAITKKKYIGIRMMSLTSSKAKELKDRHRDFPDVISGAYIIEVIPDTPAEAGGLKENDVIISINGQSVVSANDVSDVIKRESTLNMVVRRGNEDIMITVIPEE

Binder	pKd
LKVPPEERLI [CRB2, Q5IJ48]	4.18
YRLAQESGLV [ABCC6, O95255]	3.98

target: IL16_3, Q14005; test: holdup assay; design: key: below the threshold = too weak to quantify, mostly under pKd 3.1 to 4; details: plain residues with an end cap or a label only (N-terminal biotin on a linker: ado-ado)
Sequence (Q14005 1107-1207): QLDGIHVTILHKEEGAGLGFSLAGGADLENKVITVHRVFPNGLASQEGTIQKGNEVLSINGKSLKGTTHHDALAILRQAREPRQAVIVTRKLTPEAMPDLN

Binder	pKd
LKVPPEERLI [CRB2, Q5IJ48]	below the threshold
YRLAQESGLV [ABCC6, O95255]	below the threshold

target: T5, LIN7A, O14910; test: holdup assay; design: key: below the threshold = too weak to quantify, mostly under pKd 3.1 to 4; details: plain residues with an end cap or a label only (N-terminal biotin on a linker: ado-ado)
T5 sequence (O14910 103-200, limits assumed, looked up): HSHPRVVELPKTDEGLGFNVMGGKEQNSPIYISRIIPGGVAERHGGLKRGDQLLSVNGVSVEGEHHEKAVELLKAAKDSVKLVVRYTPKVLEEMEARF

Binder	pKd
LKVPPEERLI [CRB2, Q5IJ48]	below the threshold
YRLAQESGLV [ABCC6, O95255]	below the threshold

target: T6, LRRC7, Q96NW7; test: holdup assay; design: key: below the threshold = too weak to quantify, mostly under pKd 3.1 to 4; details: plain residues with an end cap or a label only (N-terminal biotin on a linker: ado-ado)
T6 sequence (Q96NW7 1440-1537, limits assumed, looked up): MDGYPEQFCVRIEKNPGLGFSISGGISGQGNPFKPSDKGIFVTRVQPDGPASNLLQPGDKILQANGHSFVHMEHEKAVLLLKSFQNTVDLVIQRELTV

Binder	pKd
LKVPPEERLI [CRB2, Q5IJ48]	below the threshold
YRLAQESGLV [ABCC6, O95255]	below the threshold

target: MAGI2_5, Q86UL8; test: holdup assay; design: key: below the threshold = too weak to quantify, mostly under pKd 3.1 to 4; details: plain residues with an end cap or a label only (N-terminal biotin on a linker: ado-ado)
Sequence (Q86UL8 915-1017): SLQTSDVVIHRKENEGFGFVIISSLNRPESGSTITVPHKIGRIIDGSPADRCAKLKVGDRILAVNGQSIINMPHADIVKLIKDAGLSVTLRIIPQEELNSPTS

Binder	pKd
LKVPPEERLI [CRB2, Q5IJ48]	below the threshold
YRLAQESGLV [ABCC6, O95255]	3.61

target: MAST1, Q9Y2H9; test: holdup assay; design: key: below the threshold = too weak to quantify, mostly under pKd 3.1 to 4; details: plain residues with an end cap or a label only (N-terminal biotin on a linker: ado-ado)
Sequence (Q9Y2H9 962-1065): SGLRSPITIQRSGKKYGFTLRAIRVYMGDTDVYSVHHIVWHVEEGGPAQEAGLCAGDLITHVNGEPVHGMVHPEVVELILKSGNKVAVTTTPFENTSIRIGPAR

Binder	pKd
LKVPPEERLI [CRB2, Q5IJ48]	3.58
YRLAQESGLV [ABCC6, O95255]	3.59

target: T7, MPDZ_10, O75970; test: holdup assay; design: key: below the threshold = too weak to quantify, mostly under pKd 3.1 to 4; details: plain residues with an end cap or a label only (N-terminal biotin on a linker: ado-ado)
T7 sequence (O75970 1624-1722, limits assumed, looked up): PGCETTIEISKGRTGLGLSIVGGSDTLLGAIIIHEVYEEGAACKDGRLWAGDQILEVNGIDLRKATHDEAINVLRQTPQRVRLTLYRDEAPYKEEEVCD

Binder	pKd
LKVPPEERLI [CRB2, Q5IJ48]	below the threshold
YRLAQESGLV [ABCC6, O95255]	below the threshold

target: T8, MPDZ_12, O75970; test: holdup assay; design: key: below the threshold = too weak to quantify, mostly under pKd 3.1 to 4; details: plain residues with an end cap or a label only (N-terminal biotin on a linker: ado-ado)
T8 sequence (O75970 1857-1958, limits assumed, looked up): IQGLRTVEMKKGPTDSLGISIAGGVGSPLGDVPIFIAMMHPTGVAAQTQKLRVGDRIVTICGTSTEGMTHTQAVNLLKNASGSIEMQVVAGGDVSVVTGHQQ

Binder	pKd
LKVPPEERLI [CRB2, Q5IJ48]	below the threshold
YRLAQESGLV [ABCC6, O95255]	below the threshold

target: T9, MPDZ_5, O75970; test: holdup assay; design: key: below the threshold = too weak to quantify, mostly under pKd 3.1 to 4; details: plain residues with an end cap or a label only (N-terminal biotin on a linker: ado-ado)
T9 sequence (O75970 695-796, limits assumed, looked up): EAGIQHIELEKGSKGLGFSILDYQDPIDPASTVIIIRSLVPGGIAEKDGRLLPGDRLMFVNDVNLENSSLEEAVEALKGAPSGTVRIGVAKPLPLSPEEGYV

Binder	pKd
LKVPPEERLI [CRB2, Q5IJ48]	below the threshold
YRLAQESGLV [ABCC6, O95255]	below the threshold

target: T10, NHERF3_1, Q5T2W1; test: holdup assay; design: key: below the threshold = too weak to quantify, mostly under pKd 3.1 to 4; details: plain residues with an end cap or a label only (N-terminal biotin on a linker: ado-ado)
T10 sequence (Q5T2W1 4-100, limits assumed, looked up): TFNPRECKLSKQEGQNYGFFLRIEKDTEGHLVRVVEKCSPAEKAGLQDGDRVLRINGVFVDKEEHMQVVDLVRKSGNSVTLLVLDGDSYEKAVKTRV

Binder	pKd
LKVPPEERLI [CRB2, Q5IJ48]	below the threshold
YRLAQESGLV [ABCC6, O95255]	3.76

target: T11, NHERF3_4, Q5T2W1; test: holdup assay; design: key: below the threshold = too weak to quantify, mostly under pKd 3.1 to 4; details: plain residues with an end cap or a label only (N-terminal biotin on a linker: ado-ado)
T11 sequence (Q5T2W1 373-468, limits assumed, looked up): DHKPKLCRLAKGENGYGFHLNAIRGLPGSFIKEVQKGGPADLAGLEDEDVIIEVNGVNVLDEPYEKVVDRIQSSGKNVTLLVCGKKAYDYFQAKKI

Binder	pKd
LKVPPEERLI [CRB2, Q5IJ48]	below the threshold
YRLAQESGLV [ABCC6, O95255]	below the threshold

target: NOS1, P29475; test: holdup assay; design: key: below the threshold = too weak to quantify, mostly under pKd 3.1 to 4; details: plain residues with an end cap or a label only (N-terminal biotin on a linker: ado-ado)
Sequence (P29475 9-101): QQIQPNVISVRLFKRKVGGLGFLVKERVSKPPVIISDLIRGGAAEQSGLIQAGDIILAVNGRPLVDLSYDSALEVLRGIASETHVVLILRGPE

Binder	pKd
LKVPPEERLI [CRB2, Q5IJ48]	below the threshold
YRLAQESGLV [ABCC6, O95255]	below the threshold

target: T12, PDZRN3_1, Q9UPQ7; test: holdup assay; design: key: below the threshold = too weak to quantify, mostly under pKd 3.1 to 4; details: plain residues with an end cap or a label only (N-terminal biotin on a linker: ado-ado)
T12 sequence (Q9UPQ7 244-349, limits assumed, looked up): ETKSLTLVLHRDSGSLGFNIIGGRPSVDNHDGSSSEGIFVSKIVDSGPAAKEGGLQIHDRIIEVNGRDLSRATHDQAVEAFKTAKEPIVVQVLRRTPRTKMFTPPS

Binder	pKd
LKVPPEERLI [CRB2, Q5IJ48]	below the threshold
YRLAQESGLV [ABCC6, O95255]	below the threshold

target: PICK1, Q9NRD5; test: holdup assay; design: key: below the threshold = too weak to quantify, mostly under pKd 3.1 to 4; details: plain residues with an end cap or a label only (N-terminal biotin on a linker: ado-ado)
Sequence (Q9NRD5 17-115): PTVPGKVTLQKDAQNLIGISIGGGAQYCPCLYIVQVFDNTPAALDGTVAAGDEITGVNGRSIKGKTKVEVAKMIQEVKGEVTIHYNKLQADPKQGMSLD

Binder	pKd
LKVPPEERLI [CRB2, Q5IJ48]	below the threshold
YRLAQESGLV [ABCC6, O95255]	4.19

target: PTPN3, P26045; test: holdup assay; design: key: below the threshold = too weak to quantify, mostly under pKd 3.1 to 4; details: plain residues with an end cap or a label only (N-terminal biotin on a linker: ado-ado)
Sequence (P26045 505-587): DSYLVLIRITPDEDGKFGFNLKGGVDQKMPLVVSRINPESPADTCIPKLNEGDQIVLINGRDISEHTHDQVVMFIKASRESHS

Binder	pKd
LKVPPEERLI [CRB2, Q5IJ48]	below the threshold
YRLAQESGLV [ABCC6, O95255]	3.87

target: TJP1_2, Q07157; test: holdup assay; design: key: below the threshold = too weak to quantify, mostly under pKd 3.1 to 4; details: plain residues with an end cap or a label only (N-terminal biotin on a linker: ado-ado)
Sequence (Q07157 181-274): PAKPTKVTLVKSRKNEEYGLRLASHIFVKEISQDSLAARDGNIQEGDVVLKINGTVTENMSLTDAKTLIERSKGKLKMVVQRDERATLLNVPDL

Binder	pKd
LKVPPEERLI [CRB2, Q5IJ48]	below the threshold
YRLAQESGLV [ABCC6, O95255]	below the threshold

target: T13, TX1BP3, O14907; test: holdup assay; design: key: below the threshold = too weak to quantify, mostly under pKd 3.1 to 4; details: plain residues with an end cap or a label only (N-terminal biotin on a linker: ado-ado)
T13 sequence (O14907 10-122, limits assumed, looked up): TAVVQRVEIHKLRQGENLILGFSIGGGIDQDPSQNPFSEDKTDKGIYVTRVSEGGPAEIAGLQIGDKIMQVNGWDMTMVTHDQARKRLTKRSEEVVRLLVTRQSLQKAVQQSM

Binder	pKd
LKVPPEERLI [CRB2, Q5IJ48]	below the threshold
YRLAQESGLV [ABCC6, O95255]	below the threshold
